In patent US20170327535A1 one finds 55% DBC data, which are given here for one molecule.

This experiment concerns the target aTNFa-Fab (Fab fragment of Infliximab, Remicade). Description: dynamic binding capacity on a 1 mL-gel column, 1 mg/mL aTNFa-Fab at […], 55% breakthrough.

B1: LB5t-Wild.4d (four connected B5 domains of PpL312), immobilized on agarose carrier (protein)
chain: KEETPETPETDSEEQVTIKENIYFEDGTVQTATFKGTFAEATAEAYRYADLLSKEHGKYTADLEDGGYTINIRFAGKEKTPEEPKEQVTIKENIYFEDGTVQTATFKGTFAEATAEAYRYADLLSKEHGKYTADLEDGGYTINIRFAGKEKTPEEPKEQVTIKENIYFEDGTVQTATFKGTFAEATAEAYRYADLLSKEHGKYTADLEDGGYTINIRFAGKEKTPEEPKEQVTIKENIYFEDGTVQTATFKGTFAEATAEAYRYADLLSKEHGKYTADLEDGGYTINIRFAGKKVDEKPEEC
modifications: coupled to maleimide-activated (EMCH) NHS Activated Sepharose 4 Fast Flow through a reactive amino acid residue
On to B1, for which the 55% DBC came to 48.6 mg/mL/gel.
